# Patent publication US20250019457A1 (IBIO, published 2025)
# Read-outs that look alike come from different tables or passages of the source.
# T1: mouse TROP2 (purified recombinant antigen, Acro Biosystems Cat #TR2-M52H6) (mouse, UniProt Q8BGV3 25-270)
# T1 construct: Bought recombinant protein; also called msTROP2
# T1 sequence: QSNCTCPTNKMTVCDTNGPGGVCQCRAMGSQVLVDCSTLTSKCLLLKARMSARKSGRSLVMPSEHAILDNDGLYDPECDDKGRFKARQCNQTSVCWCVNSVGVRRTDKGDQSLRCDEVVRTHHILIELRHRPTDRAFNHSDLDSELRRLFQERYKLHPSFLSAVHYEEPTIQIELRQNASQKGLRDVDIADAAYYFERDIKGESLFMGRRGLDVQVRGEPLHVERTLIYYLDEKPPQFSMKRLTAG
# T2: human Trop2 on cells (FaDu cells, endogenous; ExpiCHO cells overexpressing human Trop2) (human, UniProt P09758 27-323)
# T2 construct: Cell-surface form
# T2 sequence: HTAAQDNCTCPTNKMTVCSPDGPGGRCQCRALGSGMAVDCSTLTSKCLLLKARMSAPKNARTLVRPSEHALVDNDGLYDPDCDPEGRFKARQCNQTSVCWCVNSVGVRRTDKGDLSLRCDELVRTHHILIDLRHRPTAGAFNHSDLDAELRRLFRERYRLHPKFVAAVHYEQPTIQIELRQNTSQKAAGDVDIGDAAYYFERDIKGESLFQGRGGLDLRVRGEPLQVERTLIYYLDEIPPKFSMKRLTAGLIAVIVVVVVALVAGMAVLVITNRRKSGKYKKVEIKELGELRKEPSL
# T3: human EpCAM (purified recombinant antigen, Acro Biosystems Cat #EPM-H5223) (human, UniProt P16422 24-265)
# T3 construct: Bought recombinant protein
# T3 sequence: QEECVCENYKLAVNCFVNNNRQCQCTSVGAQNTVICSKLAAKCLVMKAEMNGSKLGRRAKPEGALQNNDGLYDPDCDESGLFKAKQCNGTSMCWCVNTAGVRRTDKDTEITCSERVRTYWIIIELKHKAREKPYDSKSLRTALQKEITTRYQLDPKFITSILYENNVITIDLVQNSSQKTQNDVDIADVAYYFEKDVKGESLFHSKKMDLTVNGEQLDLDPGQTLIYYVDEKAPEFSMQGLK
# T4: human TROP2 (purified recombinant antigen, Acro Biosystems Cat #TR2-H5223) (human, UniProt P09758 27-274)
# T4 construct: Bought recombinant protein; also called huTROP2
# T4 sequence: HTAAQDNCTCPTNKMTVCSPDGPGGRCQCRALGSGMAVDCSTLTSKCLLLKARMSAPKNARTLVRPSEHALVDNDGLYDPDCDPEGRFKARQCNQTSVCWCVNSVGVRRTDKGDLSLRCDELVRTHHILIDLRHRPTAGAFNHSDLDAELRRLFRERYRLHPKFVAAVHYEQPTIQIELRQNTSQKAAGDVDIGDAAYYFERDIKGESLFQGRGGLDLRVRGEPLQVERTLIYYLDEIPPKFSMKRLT
# T5: cynomolgus/rhesus TROP2 (purified recombinant antigen, Acro Biosystems Cat #TR2-R52H3) (cynomolgus/rhesus, UniProt P09758 27-274 (human entry))
# T5 construct: Bought recombinant protein; also called cyTROP2; cyno/rhesus TROP2
# T5 chain: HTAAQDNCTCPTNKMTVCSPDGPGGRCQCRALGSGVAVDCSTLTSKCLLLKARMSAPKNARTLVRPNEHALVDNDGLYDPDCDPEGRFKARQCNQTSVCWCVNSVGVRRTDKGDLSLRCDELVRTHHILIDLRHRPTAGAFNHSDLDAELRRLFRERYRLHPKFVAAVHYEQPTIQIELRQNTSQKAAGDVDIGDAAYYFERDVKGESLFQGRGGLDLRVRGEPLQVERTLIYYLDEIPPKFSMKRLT
# T6: mouse Trop2 on ExpiCHO cells overexpressing mouse Trop2 (mouse, UniProt Q8BGV3 25-317)
# T6 construct: Cell-surface form
# T6 sequence: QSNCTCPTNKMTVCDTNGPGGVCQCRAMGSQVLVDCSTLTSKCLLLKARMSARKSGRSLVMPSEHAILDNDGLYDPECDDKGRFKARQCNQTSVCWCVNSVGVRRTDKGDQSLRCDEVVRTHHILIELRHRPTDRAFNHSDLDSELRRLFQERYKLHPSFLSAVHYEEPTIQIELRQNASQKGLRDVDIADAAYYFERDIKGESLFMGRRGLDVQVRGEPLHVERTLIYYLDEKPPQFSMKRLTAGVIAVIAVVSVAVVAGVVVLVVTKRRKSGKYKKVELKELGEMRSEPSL
# Key:
# [1] = target: T1, mouse TROP2 (purified recombinant …); test: SPR, Carterra LSA; ratio of KD values, reference huTROP2
# [2] = target: T2, human Trop2 on cells (FaDu cells, …); test: flow cytometry on FaDu cells (endogenous human Trop2); average of n=1-3 experiments
# [3] = target: T3, human EpCAM (purified recombinant …); test: SPR, Carterra LSA; antibody captured on anti-human IgG, antigen injected
# [4] = target: T4, human TROP2 (purified recombinant …); test: SPR, Carterra LSA; antibody captured on anti-human IgG, antigen injected; 1:1 fit
# [5] = target: T4, human TROP2 (purified recombinant …); test: as above; remark: listed apart in the source
# [6] = target: T5, cynomolgus/rhesus TROP2 (purified …); test: as above
# [7] = target: T1, mouse TROP2 (purified recombinant …); test: as above
# [8] = target: T4, human TROP2 (purified recombinant …); test: MSD assay: biotinylated TROP2 on streptavidin plate, antibody titrated, anti-human SULFO-TAG detection
# [9] = target: T2, human Trop2 on cells (FaDu cells, …); test: flow cytometry on ExpiCHO cells overexpressing human Trop2, percent of cells bound
# [10] = target: T6, mouse Trop2 on ExpiCHO cells …; test: flow cytometry on ExpiCHO cells overexpressing mouse Trop2, percent of cells bound
Fold difference in affinity (huTROP2:msTROP2) [1],EC50 [2],Kd [4],koff [4],kon [4],Kd [5],Kd [6],Kd [7],EC50 (read off the curve) [8],EC50 (read off the curve) [9],EC50 (read off the curve) [10],Binder,binding result [3]
1.5 fold,2.04 nM,0.76 nM,0.000303 s⁻¹,396000 M⁻¹ s⁻¹,0.76 nM,0.92 nM,1.18 nM,–,–,–,"SD-394517 (antibody, V domains shown, Chicken/human chimera) VH: AVTLDESGGGLQTPGGALSLVCKGSGFTFSSYAMGWVRQAPGKGLEYVAAISSGSSTGYGAAVKGRATISRDTGQSTVRLQLNNLRAEDTATYYCAKSGYGGSASYVSDIDAWGHGTEVIVSS VL: ALALTQPSSVSANPGETVEITCSGGGDYYGTYYYGWYQQKAPGSAPVTVIYDNTKRPSNIPSRFSGSTSGSTNTLTITGVQADDEAVYYCGSYDSSAGIFGAGTTLTVL",no binding (tested: 1 µM top concentration)
0.5 fold,1.06 nM,0.64 nM,0.000259 s⁻¹,403000 M⁻¹ s⁻¹,0.64 nM,0.96 nM,0.34 nM,–,–,–,"SD-457798 (antibody, V domains shown, Chicken/human chimera) VH: AVTLDESGGGLQTPGGALSLVCKGSGFTFSSYAMGWVRQAPGKGLEYVAAISSGSSTGYGAAVKGRATISKDTGQSTVRLQLNNLRAEDTATYYCAKSGYGGSASYVSDIDAWGHGTEVIVSS VL: ALALTQPSSVSANPGETVEITCSGGGDYYGTYYYGWYQQKAPGSAPVTVIYDNTKRPSNIPSRFSGSTSGSTNTLTITGVQADDEAIYFCGSYKSNTFGAGTTLTVL",no binding (tested: 1 µM top concentration)
3 fold,1.53 nM,0.21 nM,0.000114 s⁻¹,555000 M⁻¹ s⁻¹,0.21 nM,0.29 nM,0.63 nM,~0.2 nM,~0.05 nM,–,"SD-970200 (antibody, V domains shown, Chicken/human chimera) VH: AVTLDESGGGLQTPGGALSLVCKGSGFTFSSYAMGWVRQAPGKGLEYVAAISSGSSTGYGAAVKGRATISKDTGQSTVRLQLNNLRAEDTATYYCAKSGYGGSASYVSDIDAWGHGTEVIVSS VL: ALALTQPSSVSANPGETVEITCSGGGDYYGTYYYGWYQQKAPGSAPVTVIYDNTKRPSNIPSRFSGSTSGSTNTLTITGVQADDEAVYYCGSYDSSAGIFGAGTTLTVL",no binding (tested: 1 µM top concentration)
3 fold,0.513 nM,3.81 nM,0.000898 s⁻¹,235000 M⁻¹ s⁻¹,3.81 nM,6.08 nM,11.4 nM,~0.08 nM,–,–,"SD-685208 (antibody, V domains shown, Chicken/human chimera) VH: AVTLDESGGGLQTPGGALSLVCKASGFDFIDYDMFWVRQAPGKGLEWVGVINRSGSYTNYAPAVKGRATISRDNGQSTMRLQLNNLRAEDTGTYYCARGACTHCWDADSAGYIDAWGHGTEVIVSS VL: ALALTQPSSVSANPGETVKITCSGSSGSYGWFQQKSPGSAPVTVIYWNDKRPSDIPSRFSGSTSGSTGTLTITGVQADDEAVYFCGNADSSGTFGAGTTLTVL",no binding (tested: 1 µM top concentration)
1 fold,0.607 nM,0.35 nM,0.000223 s⁻¹,643000 M⁻¹ s⁻¹,0.35 nM,0.48 nM,0.35 nM,–,~0.02 nM,~0.02 nM,"SD-589775 (antibody, V domains shown, Chicken/human chimera; also called parental chimera) VH: AVTLDESGGGLQTPGGGLSLVCKASGFDFIDYDMFWVRQAPGKGLEWVGVINRSGSYTNYAPAVKGRATISRDNGQSTMRLQLNNLRAEDTGTYYCARGACTHCWDADSAGYIDAWGHGTEVIVSS VL: ALALTQPSSVSANPGGTVKITCSGSSGSYGWHQQKSPGSAPVTVIYSSDKRPSDIPSRFSGALSGSTATLTITGVRAEDEAVYYCGGYDGSTDVGIFGAGTTLTVL",no binding (tested: 1 µM top concentration)
6.9 fold,1.99 nM,0.23 nM,3.42e-05 s⁻¹,148000 M⁻¹ s⁻¹,0.23 nM,0.11 nM,1.59 nM,–,–,~0.03 nM,"SD-320063 (antibody, V domains shown, Chicken/human chimera) VH: AVTLDESGGGLQTPGGGLSLVCKASGFDFIDYDMFWVRQAPGKGLAWVGVINRSGSYTNYAPAVKGRATISRDNGQSTVRLQLNNLRAEDTGTYYCAKGVCTHCWDADSAGNIDAWGHGTEVIVSS VL: ALALTQPSSVSANPGETVEITCSGGSGNYGWFQQKSPGSAPVTVIYNNNYRLSDIPSRFSGSASGSTATLTITGVRVEDEAVYFCGSADSTYVGLFGAGTTLTVL",no binding (tested: 1 µM top concentration)
–,2 nM,1.81 nM,0.000201 s⁻¹,111000 M⁻¹ s⁻¹,1.81 nM,2.05 nM,–,~0.3 nM,~0.03 nM,–,"RS7 (antibody, V domains shown) VH: QVQLQQSGSELKKPGASVKVSCKASGYTFTNYGMNWVKQAPGQGLKWMGWINTYTGEPTYTDDFKGRFAFSLDTSVSTAYLQISSLKADDTAVYFCARGGFGSSYWYFDVWGQGSLVTVSS VL: DIQLTQSPSSLSASVGDRVSITCKASQDVSIAVAWYQQKPGKAPKLLIYSASYRYTGVPDRFSGSGSGTDFTLTISSLQPEDFAVYYCQQHYITPLTFGAGTKVEIKR",–
1.2 fold,1.05 nM,11.5 nM,0.000294 s⁻¹,25500 M⁻¹ s⁻¹,11.5 nM,15.3 nM,13.6 nM,–,–,~5 nM,"SD-168804 (antibody, V domains shown, Chicken/human chimera) VH: not shown VL: ALALTQPSSVSANPGETVKITCSGGSYSYGSYYYGWYQQKSPGSAPVTVIYDNDKRPSGIPSRFSGSKSGSTGTLTITGVQAEDEAVYFCGSTDSSSTAAFGAGTTLTVL",no binding (tested: 1 µM top concentration)
